These results are taken from patent publication US20200270365A1 (JIANGSU HENGRUI MEDICINE, published 2020).

The EC50 is the concentration needed to bring the measured effect to its halfway point. The low end stands for a more potent agent, the high end for a less potent agent. One may read the IC50 as the point on the concentration scale where inhibition reaches its midpoint.

Numbering of substitutions follows the chain as printed.

The chains are these.
B1: h011-3050 (antibody, V domains shown)
VH: QVQLVQSGAEVKKPGASVKVSCKASGYTFTGYTIHWVRQAPGQGLEWMGEILPSSTYTKFNQKFKDRVTMTRDTSISTAYMELSRLRSDDTAVYYCARERIYSNYWFFDVWGQGTTVTVSS
VL: DIVMTQSPSSLSASVGDRVTITCKASQNVYTAVAWYQQKPGKSPKLLIYSASNRYTGVPSRFSGSGSGTDFTLTISSLQPEDFATYFCQQYSSYPYTFGGGTKVEIK
B2: h011-3073 (antibody, V domains shown)
VH: B1 VH with E50Y, L52N, R100N, Y102F, V110R
VL: B1 VL
B3: h011-3187 (antibody, V domains shown)
VH: B1 VH with E50Y, L52N
VL: B1 VL with Y91L, Y94S, Y96E
B4: h011-3058 (antibody, V domains shown)
VH: B1 VH with L52N, S55G
VL: B1 VL
B5: h011-3147 (antibody, V domains shown)
VH: B1 VH with L52I
VL: B1 VL
B6: h011-3174 (antibody, V domains shown)
VH: B1 VH with E50Y, L52N, Y102F
VL: B1 VL with S50Q
B7: h011-3121 (antibody, V domains shown)
VH: B1 VH with E50Y, L52N
VL: B1 VL with Y91L, Y94Q, Y96E
B8: h011-3133 (antibody, V domains shown)
VH: B1 VH with T33E, E50Y, L52N, S55A
VL: B1 VL
B9: h011-3070 (antibody, V domains shown)
VH: B1 VH with E50Y, L52N, R100N, S103F, V110R
VL: B1 VL
B10: h011-3120 (antibody, V domains shown)
VH: B1 VH with E50Y, L52N
VL: B1 VL with Y91F, S93W, Y94F
B11: h011-3093 (antibody, V domains shown)
VH: B1 VH with E50Y, L52N
VL: B1 VL with S50E, A51M, S52V
B12: h011-3190 (antibody, V domains shown)
VH: B1 VH with L52N
VL: B1 VL
B13: h011-3095 (antibody, V domains shown)
VH: B1 VH with E50Y, L52N
VL: B1 VL with S50E
B14: h011-3181 (antibody, V domains shown)
VH: B1 VH with E50Y, L52N
VL: B1 VL with Y91L, Y96D
B15: h011-3111 (antibody, V domains shown)
VH: B1 VH with E50Y, L52N
VL: B1 VL with T31W, A32E, A34D
B16: h011-3118 (antibody, V domains shown)
VH: B1 VH with E50Y, L52N
VL: B1 VL with T31W, A32E, A34V
B17: h011-3065 (antibody, V domains shown)
VH: B1 VH with T33D, E50Y, L52N
VL: B1 VL

For the first assay, the target named is T1, PCSK9 protein inserted with biotin receiving peptide BP15 and His-tag: PCSK9-BP15-His6 (human, UniProt Q8NBP7 153-692; A8T644 31-152, biotin on the BP15 biotin receiving peptide (labeled during the expression)).
T1 construct: also called WT PCSK9; PCSK9 WT
The assay can be described thus: ELISA, biotin PCSK9 on streptavidin plate. How it is done: The binding ability of anti-PCSK9 antibodies of the present invention to PCSK9 protein (WT PCSK9, SEQ ID NO: 5) was detected by measuring the amounts of antibodies binding to PCSK9 immobilized on the ELISA plate.
(§1) Streptavidin (sigma, CAT #S4762) was diluted to 2 μg/ml with PBS and was added into a 96-well ELISA plate, at 4° C. for overnight. The plate was washed and then was blocked with Tris buffer (including 0.9 mM CaCl₂, 0.05% Tween 20 and 5% skim milk) at 37° C. for 2 hours. Then the plate was washed again and 100 μl/well of biotin-labeled PCSK9 (produced in-house, diluted with Tris buffer containing 0.9 mM CaCl₂, 0.05% Tween 20 and 1% skim milk) was added and incubated at 37° C. for 1 hour. After the wash step various concentrations of diluted PCSK9 antibody samples was added to the plate and incubated at 37° C. for 1 hour. […] Then the plate was washed and tetramethyl brenzidine solution was added for development. Finally, the stop buffer was added and the OD450 value was measured on the Microplate reader, and then EC50 was calculated.
On the technique in general: In an ELISA, binding on a coated surface is turned into a signal by an enzyme label.
In the case of B1, the concentration for a half-maximal effect (EC50) came out at 3.12 ng/mL.

B2: a half-maximal response (EC50) required 3.89 ng/mL.

B3 yielded an EC50 of 4.5 ng/mL.

B4 showed an EC50 of 3.69 ng/mL.

On to B5, for which the EC50 was 4.83 ng/mL.

The molecule B6 gave an EC50 of 5.29 ng/mL.

In the case of B7, the response was half-maximal at 3.78 ng/mL (EC50).

The molecule B8 displayed an EC50 of 4.35 ng/mL.

The molecule B9 yielded an EC50 of 5.11 ng/mL.

B10 came in with an EC50 of 5.38 ng/mL.

B11 yielded an EC50 of 3.81 ng/mL.

As for B12, the EC50 was determined as 5 ng/mL.

For B13, it took 4.41 ng/mL to reach a half-maximal effect (EC50).

B14 came in with an EC50 of 2.21 ng/mL.

Turning to B15, the EC50 is 4.98 ng/mL.

B16 gave a half-maximal effective concentration (EC50) of 3.51 ng/mL.

B17 returned an EC50 of 5.39 ng/mL.

Another assay concerns the target T2, PCSK9 D374Y mutant protein inserted with biotin receiving peptide BP15 and His-tag: PCSK9-D374Y-BP15-His6 (human, UniProt Q8NBP7 153-692; A8T644 31-152, biotin on the BP15 biotin receiving peptide).
T2 construct: also called PCSK9-Y; mutant PCSK9
The assay can be described thus: competition ELISA, LDLR-FC coated, biotin PCSK9-Y + antibody. As for the experimental part: The blocking ability of PCSK9 antibodies according to the present invention for the binding of LDLR-FC and PCSK9-Y (mutant PCSK9, SEQ ID NO: 6) was tested by measuring the amount of PCSK9-Y binding to LDLR in the presence of the antibodies.
(§2) LDLR-FC (produced in-house, with sequence of SEQ ID NO: 8) was diluted to 2 μg/ml with phosphate buffer and was added into the 96-well ELISA plate, at 4° C. overnight. The plate was washed and then blocked with Tris buffer (including 0.9 mM CaCl₂, 0.05% Tween 20 and 5% skim milk) at 37° C. for 2 hours. Then the plate was washed and 100 μl/well of mixture of biotin-labeled mutant PCSK9 (diluted to 1 μg/ml with Tris buffer containing 0.9 mM CaCl₂, 0.05% Tween 20 and 1% skim milk) and antibody samples (diluted with Tris buffer containing 0.9 mM CaCl₂, 0.05% Tween 20 and 1% skim milk) was added and incubated at 37° C. for 1 hour. Then the plate was washed again and horseradish peroxidase-streptavidin (sigma, CAT #S2438) was added and incubated at 37° C. for 1 hour. Then the plate was washed and tetramethyl brenzidine solution was added for development. Finally, the stop buffer was added and OD450 value was measured on the Microplate reader, then IC50 value was calculated.
For the molecule B1, the concentration for half-maximal inhibition (IC50) is 0.123 µg/mL.

Turning to B2, the IC50 was 0.129 µg/mL.

Regarding B3, the IC50 was found to be 0.156 µg/mL.

B4: the IC50 is 0.162 µg/mL.

Turning to B5, the IC50 worked out at 0.173 µg/mL.

B6: the IC50 is 0.23 µg/mL.

B7: the IC50 worked out at 0.174 µg/mL.

For the molecule B8, the IC50 stood at 0.175 µg/mL.

As to B9, the IC50 came out at 0.228 µg/mL.

Turning to B10, the IC50 was found to be 0.213 µg/mL.

On to B11, for which the IC50 stood at 0.287 µg/mL.

As for B12, the IC50 came to 0.222 µg/mL.

As to B13, the IC50 worked out at 0.391 µg/mL.

B14: the IC50 was 0.233 µg/mL.

As for B15, the IC50 was 0.226 µg/mL.

Turning to B16, the IC50 was 0.23 µg/mL.

With B17, the IC50 came to 0.312 µg/mL.

Another assay has as its target T2, PCSK9 D374Y mutant protein inserted …. The assay can be described thus: ELISA, biotin PCSK9-Y on streptavidin plate. As for the experimental part: The binding ability of anti-PCSK9 antibodies of the present invention to PCSK9-Y protein (mutant PCSK9, SEQ ID NO: 6) was detected by measuring the amounts of antibodies binding to PCSK9-Y immobilized on the ELISA plate.
as §1, with “hours. The” for “hours. Then the”, “washed” for “washed again”, “biotin-labeled PCSK9-Y” for “biotin-labeled PCSK9”, “wash step,” for “wash step”, “samples were” for “samples was”
As to B1, the response was half-maximal at 5.25 ng/mL (EC50).

The molecule B2 showed an EC50 of 12.3 ng/mL.

The molecule B3 yielded an EC50 of 7.04 ng/mL.

In the case of B4, the EC50 worked out at 6.06 ng/mL.

Molecule B5 had an EC50 of 6.68 ng/mL.

The molecule B6 registered an EC50 of 11.2 ng/mL.

For B7, the EC50 amounted to 6.95 ng/mL.

B8 displayed an EC50 of 4.92 ng/mL.

In turn, B9 gave a half-maximal effective concentration (EC50) of 14.4 ng/mL.

B10 registered an EC50 of 7.11 ng/mL.

For B11, the EC50 came out at 9.89 ng/mL.

As to B12, it took 4.78 ng/mL to reach a half-maximal effect (EC50).

On to B13, for which a half-maximal effect (EC50) was put at 13.2 ng/mL.

On to B14, for which the concentration giving a half-maximal response (EC50) came out at 6.78 ng/mL.

Regarding B15, the EC50 worked out at 6.81 ng/mL.

B16 came in with a concentration for a half-maximal effect (EC50) of 8.51 ng/mL.

The molecule B17 yielded an EC50 of 10.9 ng/mL.

Another assay addresses T1, PCSK9 protein inserted with biotin …. As to the kind of experiment: competition ELISA, LDLR-FC coated, biotin PCSK9 + antibody. How it is done:
The blocking ability of PCSK9 antibodies according to the present invention for the binding of LDLR-FC (produced in-house, with sequence of SEQ ID NO: 8) and PCSK9 (SEQ ID NO: 5) was tested by measuring the amount of PCSK9 binding to LDLR in the presence of the antibodies.
as §2, with “LDLR-FC” for “LDLR-FC (produced in-house, with sequence of SEQ ID NO: 8)”, “to 5” for “to 2”, “plate, kept” for “plate,”, “biotin-labeled” for “biotin-labeled mutant”, “to 2” for “to 1”
In the case of B1, the IC50 came to 0.598 µg/mL.

On to B2, for which the IC50 was 0.604 µg/mL.

B3: the IC50 is 0.666 µg/mL.

With B4, the IC50 is 0.542 µg/mL.

For the molecule B5, the concentration for half-maximal inhibition (IC50) came to 0.567 µg/mL.

With B6, the IC50 was determined as 1.67 µg/mL.

Consider B7, for which the IC50 is 0.662 µg/mL.

With B8, the concentration for half-maximal inhibition (IC50) came to 0.495 µg/mL.

Turning to B9, the IC50 turned out to be 0.629 µg/mL.

For the molecule B10, the IC50 worked out at 0.911 µg/mL.

Take B11: the IC50 was found to be 0.706 µg/mL.

For the molecule B12, the IC50 was 0.837 µg/mL.

B13: the IC50 was 0.582 µg/mL.

B14: the 50% inhibitory concentration (IC50) was found to be 0.857 µg/mL.

As for B15, the IC50 was found to be 1.22 µg/mL.

In the case of B16, the IC50 worked out at 1.04 µg/mL.

Take B17: the IC50 amounted to 0.73 µg/mL.
